For data set [1], the target named is T1, T-ag peptide 2(9), unphosphorylated (Simian virus 40).
T1 chain: SQHSTPPKK
In words: filter; background at 0.5-2 mM; EMSA at 2 mM negative. The settings on record: protein: synthetic; tags: synthetic peptide; label: 5'-32P. In general terms: Mobility shift assays separate free from complexed probe on a gel.

The target of data set [2] is T2, T-ag peptide 1(9), phospho-Thr124 (Simian virus 40).
T2 chain: SQHS[pT]PPKK
Described as above. Particulars: protein: synthetic; tags: synthetic peptide, phosphorylated Thr124; label: 5'-32P.

Data set [3] has as its target SV40 large T antigen (full length) (Simian virus 40, UniProt P03070 P03070:1-708). In words: EMSA; hexamers and double hexamers; 7 mM MgCl2, AMP-PNP, 37 C, glutaraldehyde. The settings on record: label: 5'-32P.
Data set [4] addresses T3, T-ag peptide T-2(17), unphosphorylated (Simian virus 40, UniProt P03070).
T3 chain: ATADSQHSTPPKKKRKV
In words: filter; significant at 0.5 mM, saturated at 1-2 mM; higher affinity than 13-mer. The settings on record: protein: synthetic; tags: synthetic peptide; label: 5'-32P.

For data set [5], the target named is T4, E1 peptide E1-P2(25), BP-E1, unphosphorylated (Bovine papillomavirus, UniProt P03116 SEQ:1-25).
T4 chain: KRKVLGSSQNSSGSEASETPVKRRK
In words: filter; binds at 0.25 mM, better than T-2(17); EMSA works without glutaraldehyde. Particulars: protein: synthetic; tags: synthetic peptide; label: 5'-32P.

Where no end group is shown, it is not given here. [ ]: non-standard residue; d: D form. pT = C[C@@H](OP(=O)(O)O)[C@H](N)C(=O)O

B1: 64-bp SV40 core origin (dsDNA)
DNA 1: TAATTTTTTTTATTTATGCAGAGGCCGAGGCCGCCTCGGCCTCTGAGCTATTCCAGAAGTAGTG
DNA 2: CACTACTTCTGGAATAGCTCAGAGGCCGAGGCGGCCTCGGCCTCTGCATAAATAAAAAAAATTA
In the case of B1, the binding result in data set [1] was “no binding”; in data set [2], “no binding”; in data set [3], “binds”; in data set [4] it was “binds”; in data set [5], “binds”.
